Experimental data taken from paper PMC3765442 (PLoS ONE, 2013).

What was measured:
[1] = molecular target: the molecule itself; assay: AUC; absorption sedimentation equilibrium at 37°C; 1 to 60 µM (monomer equivalents); 14'000, 17'000 and 26'000 rpm; buffer as for velocity runs but without BSA; dimer to monomers
[2] = molecular target: the molecule itself; assay: AUC; fluorescence sedimentation velocity (GFP signal at 488 nm), 22°C; dilution series from about 500 to about 0.5 nM (monomer equivalents); 20 mM Tris-HCl pH 7.5, 300 mM NaCl, 0.2 mg/ml BSA, 2 mM DTT or 0.1 mM TCEP; samples incubated 16 hours at 22°C; dimer to monomers; apparent Kd
[3] = molecular target: the molecule itself; assay: SEC-MALS; Superdex 200 10/30 with in-line multi-angle light scattering; 1 to 4 mg/ml injected in 100 µl (about 1 µM at the peak); 20 mM Tris-HCl pH 7.5, 300 mM NaCl, 2 mM DTT; room temperature; single experiments

B1: EB1c-GFP (C-terminal domain of human EB1, Asp191-Tyr268, C-terminally EGFP-His-tagged) (domain or fragment, UniProt Q15691 191-268, looked up)
chain: DEAAELMQQVNVLKLTVEDLEKERDFYFGKLRNIELICQENEGENDPVLQRIVDILYATDEGFVIPDEGGPQEEQEEY
notes: Calculated monomer mass 38.3 kDa; also called C-terminal domain of EB1; not shown: EGFP, C-terminal, kept
- stoichiometry N [1]: 2

B2: EB1c-GFP[A206K] (domain or fragment, human, UniProt Q15691 191-268, looked up)
chain: DEAAELMQQVNVLKLTVEDLEKERDFYFGKLRNIELICQENEGENDPVLQRIVDILYATDEGFVIPDEGGPQEEQEEY
notes: As m3, but Ala206 of the EGFP tag is mutated to lysine; the EB1c part is unchanged; not shown: EGFP with A206K, C-terminal, kept
- stoichiometry N [2]: 2

B3: EB3c-GFP (C-terminal domain of human EB3, Ala200-Tyr281, C-terminally EGFP-His-tagged) (domain or fragment, UniProt Q9UPY8 200-281, looked up)
chain: AQILELNQQLVDLKLTVDGLEKERDFYFSKLRDIELICQEHESENSPVISGIIGILYATEEGFAPPEDDEIEEHQQEDQDEY
notes: Calculated monomer mass 38.7 kDa; also called C-terminal domain of EB3; not shown: EGFP, C-terminal, kept
- stoichiometry N [3]: 2
- Kd [2]: 2 nM
